System: K4 kissing-loop RNA reporter
Assay: apparent KD of K4 kissing-loop reporter; higher = weaker reporter binding
Conditions: Eterna round: R107
Procedure: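 RNA-MaP round R107: designed RNA switches with theophylline, tryptophan, arginine or FMN aptamers are transcribed on-chip within common flanks. They are titrated with a labelled K4 kissing-loop RNA reporter in RNA-MaP buffer (100 mM Tris pH 7.5, 80 mM KCl, 4 mM MgCl2), without ligand or with the indicated ligand. Median apparent KD per design.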

[1] = input ligand: theophylline 20 uM
[2] = input ligand: tryptophan 2.4 mM
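Further: bound reporter read as fluorescence of individual clusters on recovered sequencing chips by microscopy, with normalized cluster intensities fitted with a binding model.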

| Sequence | apparent KD of K4 kissing-loop reporter (input ligand: FMN 200 uM) | apparent KD of K4 kissing-loop reporter (input ligand: arginine 13.2 mM) | apparent KD of K4 kissing-loop reporter (input ligand: none) | apparent KD of K4 kissing-loop reporter [1] | apparent KD of K4 kissing-loop reporter [2] |
| --- | --- | --- | --- | --- | --- |
| CUACAUGCACAGGAGUGAUGUUUAUGGGCUCGAGGACCGGUACGGCCGCCACUCGUUAUGGCACGCAGUAGAUAUAGGCGAGGAA [theeternabot_sameState_KL_Trp_A_41] | 615 nM | 381 nM | 605 nM | 448 nM | 871 nM |
| UGUCAUUGGUCUGAUACCAGUUGGGACGAAUACGUCCAACUGGAGUGAUGUUCCUAAAACAACCCUUGGCAGCAGACCGAUGACU [TheoBS 13 #SwitchBubble 13 #StaticStem] | 870 nM | 782 nM | 1040 nM | 638 nM | 750 nM |
| UGACUGGACUGAAGGAGCGCGAAAACUCCUAGUGAUGUUAGGAAAACGAGACAAAGUCUCGCGCAGGUAGGUCGCAGUCUAGUCU [ArgBS 20 #SwitchBubble #StaticStem] | 131 nM | 102 nM | 121 nM | 129 nM | 113 nM |
| AGGCACGAGCAAGGAUAUUGAGUAGAGUGAUGUUCUGCCUAAGUUGGCUCGAAAGAGCCUUCUUAGCGAGAAGGUGCUCGUGCCU [#2 Same State - FMN A Attempt #26 (HarryS)] | 297 nM | 534 nM | 666 nM | 812 nM | 763 nM |
| AAUUUGUAUUUAUUCUUUAAAUGUUCAGAAGGAGCGUGAAUUAUCACAGGUAGGUCGCUGAGCUAGUGAUGUUAGCUAUACACUA [#01 K4 Arginine A Exclusion] | 98.5 nM | 201 nM | 127 nM | 181 nM | 91 nM |
| GGCACUUUUGGUAGGAACCAUCUACCUCUAUAGGAUAUGCCGAAAGGCAGAAGGAUAGACCUACAGAGUGAUGUUCUGCGUGCCU | 573 nM | 150 nM | 330 nM | 203 nM | 211 nM |
| GCAGUGAUGUUGCGCGGGUACGGUAGAGUACGAGGACCGGUACGGCCGCCACUCGUACGGAACUGGCUAAUUUAUGGAAUGGUGA [IV] | 377 nM | 198 nM | 313 nM | 350 nM | 213 nM |
| AAUACGAAGCAGUGAUGUUGCUUAUGAGAAGGAGCGCACGAAAGUGCAGGUAGGUCGCUCAGCCAUGUGGACGAAAACGUCCACA [whbob_SS_Arginine_A_sa109] | 83.3 nM | 102 nM | 89.2 nM | 102 nM | 80.5 nM |
| AGUGAUAUAUGAGGAUAUGGGUUUGUUAAUGAGUUUGUUUUAGUGUUGUUUGGUUAGUGAUGUUAUUUAGAAGGCGUGAGUGAUG [vxxexmullin] | 130 nM | 80.5 nM | 82.4 nM | 127 nM | 72 nM |
| UGGGUGUAGUGAUGUUAUAUAGAGAAUGAUACCAGCUUAGAGAGGAGCCCUUGGCAGCGUAGACGAGUAUCAUUGGAGGAGGAGG [#22 K4 Theophylline A Exclusion] | 714 nM | 924 nM | 965 nM | 724 nM | 647 nM |
| UUUCUACCGGGAAGGAGCGUGAAUGAUAAUGGAUAUAGUGAUGUUAUAUAUACGAACGAAUCGCAGGUAGGUCGCCCGGAUGACU [SSArgB.T] | 586 nM | 503 nM | 724 nM | 550 nM | 486 nM |
| CGCAGUGAUGUUGCGAAUAUAAUUACGGAAGGAGCGCGUGAAAACGCAGGUAGGUCGCCGUUUGGUAUGAUGGAAACAUCGUACC [Arginine A K4 10] | 140 nM | 125 nM | 147 nM | 115 nM | 117 nM |
| UGACUGGAUGGAAGGAGCGCUAAACUCCUAGUGAUGUUAGGGAAACGAGACAAAGUCUCGAAGCAGGUAGGUCGCCAUCUAGUCU [FiskerMod 14 - Jieux - Same State - Arginine B] | 176 nM | 134 nM | 158 nM | 146 nM | 155 nM |
| GUUAUGGACCUGGAUACCAGCUGGUACUAAGUGGGAGAAUGAAAGUGAUGUUUUCGUGCUAGCCCUUGGCAGCCAGCAACCCGCA [XTheo-B7] | 104 nM | 83.6 nM | 89.4 nM | 79.4 nM | 80.1 nM |
| UGUGGAGAAUAUGAUACCAGCAGUGAGAGAGAGGAAGUAUAGUGAUGUUAUAUGAGAGAAUGCCCUUGGCAGCAUAAGAAGAAGG [SSTheophylB.D] | 216 nM | 155 nM | 170 nM | 277 nM | 186 nM |
| GAUGAACUAUUCGAUACCAGACUACAUGAGUGAUGUUCAUGUGUGUCAAUGUCUAUGUCAGUCCCUUGGCAGCGAAUAGUUUAUC [KL-XTheo-B27] | 146 nM | 108 nM | 125 nM | 141 nM | 125 nM |
| AGCCUUACAUCGGCCGCCACUUCCCUGGCAGUGAUGUUGCCGUAGACAAUCAUUCUACCCUGGAGAAGGACCGGGAUGCAGAAAC [theeternabot_sameState_KL_Trp_B_8] | 154 nM | 185 nM | 167 nM | 223 nM | 329 nM |
| GGACCACCAGUGAUGUUGGAGAUAAACUCCAAGGAUAUGACGAAAGUCAGAAGGUGGUAAUAAGACGUCAAAGACGUCAGGUCCA [FmnA 20 #SwitchBubble #K4Early] | 372 nM | 116 nM | 187 nM | 209 nM | 178 nM |
| UUAUAUAAGGGAAGGAGCGCGUGGGCGCAGUGAUGUUGCGCCCGACAUCACUUCAACUUAACGCAGGUAGGUCGCCCUUUUAAUA [Arginine B (Excl) V4] | 188 nM | 194 nM | 209 nM | 206 nM | 209 nM |

Source: the supplement of paper PMC9170038
